{
  "source": "patent US20130123460A1",
  "about": "(SANWA KAGAKU KENKYUSHO, published 2013)",
  "binders": {"B1": {"name": "VIP(1-28)-NH2 (peptide)", "peptide": "HSDAVFTDNYTRLRKQMAVKKYLNSILN-NH2"}},
  "biological_target": "endogenous VIP receptor of SUP-T1 cells (human)",
  "experiment": "cell-based or functional assay",
  "note": "Where no end group is shown, it is not given here.",
  "data": [
    {"binder": "B1", "values": [
      {"measurement": "cAMP Productivity in SUP-T1 Cells, Activity Intensity (%) relative to native VIP", "value": 100, "unit": "%"}
    ]}
  ]
}
